Data set [1] deals with the molecule itself. The experiment in a line: SEC; HiLoad 16/600 Superdex 200 pg, 20 mM Tris-HCl (pH 7.0) with 0.1 M NaCl, 1 mL/min; mass standards ovalbumin, conalbumin, aldolase, ferritin. (In general: Size exclusion chromatography separates by hydrodynamic size, large species first.)
Data set [2] deals with the molecule itself. In words: crystal structure; Se-Met-labelled protein, sitting-drop vapor diffusion at 20 °C, 0.1 M sodium acetate trihydrate pH 4.59, 24% w/v PEG 3350, 0.01 M TCEP; SAD, 1.90 Å; ligand-free, two molecules in the asymmetric unit.

A word on the stoichiometry N: it is the number of molecules, sites or subunits per partner or assembly.

B1: Dipeptidyl peptidase III from Corallococcus sp. EGB (recombinant CoDPP III) (enzyme, UniProt A0A5H1ZR28 1-537, looked up)
chain: RLPDAPTLKRMTARFAPVDVKVDVSKLPDAEKRALAKILQAAKIMDPLFLSQAWAGNPTLLLDLVEDTTPLGKERLHAFLLNKGPWSRLDEAKPFIPGVPPKPDEGNFYPAGATKAEVEAWVKSLPEAQQHAATGFFTTVRKGPDGKFLTVPYSVEYQGELGMAAKLLREAAALTQQSTLKRFLETRAEAFLSNDYYASEVAWMELDASVEPTIGPYEVYEDGWFNYKAAFEAFIGVRDEAETQKLAKFSAELQELENNLPIEPALRNPKLGALAPIRVINSLYSSGDGNRGVQTAAYNLPNDERVAAEKGTKRVMLKNIQEAKFQRVLVPIAKVALPAKDRKDVSFDAFFTHILMHELMHGLGPHNVTVAGKQTTVRQALQASSSAIEEAKADISGLWALQRLVDKGTLDKELQRTMYTTFLASAFRSIRFGIDEAHGKGIALQLNHFLDTGAVKVNADGTFEVVPDKMQASVTSLTNQLMSLQAKGDRAAAEELLAKQGVVRPSVQKVLEKLKNVPVDIEPRYVTAESLVKDFGA
notes: signal peptide in the construct; dipeptidyl peptidase III (CoDPP III) of Corallococcus sp; EGB, open reading frame of 1719 bp encoding 572 amino acids, predicted signal peptide residues 1 to 22; cloned into Nde I and Xho I sites of pET29a(+); The Xho I site of pET29a probably adds Leu-Glu before the His6 tag (surmised); also called native DPP III; source: E. coli BL21(DE3), purified (CM-Sepharose …)
On to B1, for which the “stoichiometry N” value in data set [1] turned out to be 2.

B2: Selenomethionine-labelled dipeptidyl peptidase III from Corallococcus sp. EGB (enzyme, UniProt A0A5H1ZR28 1-537, looked up)
chain: RLPDAPTLKRMTARFAPVDVKVDVSKLPDAEKRALAKILQAAKIMDPLFLSQAWAGNPTLLLDLVEDTTPLGKERLHAFLLNKGPWSRLDEAKPFIPGVPPKPDEGNFYPAGATKAEVEAWVKSLPEAQQHAATGFFTTVRKGPDGKFLTVPYSVEYQGELGMAAKLLREAAALTQQSTLKRFLETRAEAFLSNDYYASEVAWMELDASVEPTIGPYEVYEDGWFNYKAAFEAFIGVRDEAETQKLAKFSAELQELENNLPIEPALRNPKLGALAPIRVINSLYSSGDGNRGVQTAAYNLPNDERVAAEKGTKRVMLKNIQEAKFQRVLVPIAKVALPAKDRKDVSFDAFFTHILMHELMHGLGPHNVTVAGKQTTVRQALQASSSAIEEAKADISGLWALQRLVDKGTLDKELQRTMYTTFLASAFRSIRFGIDEAHGKGIALQLNHFLDTGAVKVNADGTFEVVPDKMQASVTSLTNQLMSLQAKGDRAAAEELLAKQGVVRPSVQKVLEKLKNVPVDIEPRYVTAESLVKDFGA
modifications: selenomethionine (Se-Met labelled)
notes: signal peptide in the construct; dipeptidyl peptidase III (CoDPP III) of Corallococcus sp; EGB, same pET29a-Codpp III construct as m1 (572 amino acids, predicted signal peptide residues 1 to 22); the final model lacks 27 amino acids at the N-terminus and 8 (chain A) or 12 (chain B) at the C-terminus; Same construct as m1, expressed in a methionine auxotroph with Se-Met; also called Se-CoDPPIII; …
Regarding B2, in data set [2], the binding result is reported as “binds”.

Values taken from paper PMC9820243, “Structural and Functional Characterization of a New Bacterial Dipeptidyl Peptidase III Involved in Fruiting Body Formation in Myxobacteria” (International Journal of Molecular Sciences, 2022).
